Source: US20110293511A1, “SPECIFIC BINDING PROTEINS AND USES THEREOF” (priority 2009, published 2011)
“And” between values parts separate entries of the source, which are not always exact repeats. Equal entries are not always repeated. “Also recorded” adds a separate entry of the source.

Legend:
xenograft A431 = experiment: immunohistochemical analysis on xenograft tumors; assay type: binding, human
Description: The murine fibroblast line NR6ΔEGFR was used as immunogen. Mouse hybridomas were generated by immunizing BALB/c mice five times subcutaneously at 2- to 3-week intervals, with 5×10^5-2×10^6 cells in adjuvant. Complete Freund's adjuvant was used for the first injection. Thereafter, incomplete Freund's adjuvant (Difco™, Voigt Global Distribution, Lawrence, Kans.) was used. Spleen cells from immunized mice were fused with mouse myeloma cell line SP2/0 (Shulman et al. (1978) Nature 276:269-270). Supernatants of newly generated clones were screened in hemadsorption assays for reactivity with cell line NR6, NR6wtEGFR, and NR6ΔEGFR and then analyzed by hemadsorption assays with human glioblastoma cell lines U87MG, U87MGwtEGFR, and U87ΔEGFR. Selected hybridoma supernatants were subsequently tested by western blotting and further analyzed by immunohistochemistry. Newly generated mAbs showing the expected reactivity pattern were purified.
Bound antibody was detected using the Dako Envision+ HRP detection system as per manufacturer's instructions. Sections were finally rinsed with water, counterstained with hematoxylin and mounted.

U87MG cells = experiment: binding to cell lines by FACS; set-up: species or system human; conditions: parental U87MG
Procedure: (§1) Briefly, cells were labelled with the relevant antibody (10 μg/ml) followed by fluorescein-conjugated goat anti-mouse IgG (1:100 dilution; Calbiochem San Diego, Calif., USA; Becton-Dickinson PharMingen, San Diego, Calif., US) as described previously (Nishikawa et al., 1994). FACS data was obtained on a Coulter Epics Elite ESP by observing a minimum of 5,000 events and analyzed using EXPO (version 2) for Windows.
(§2) Stained cells were analyzed with a FACS Calibur using Cell Quest software (Becton-Dickinson PharMingen). […] 1. Mouse IgG2a or IgG2b was used as an isotype control.
(§3) Cell lines and antibodies were prepared as described in Example 1. […] Cells (1 3 10 6) were incubated with 5 μg/ml of the appropriate antibody or an isotype-matched negative control in PBS containing 1% HSA for 30 min at 4° C. After three washes with PBS/1% HSA, cells were incubated an additional 30 min at 4° C. with FTTC-coupled goat anti-mouse antibody (1:100 dilution; Calbiochem, San Diego, Calif.). After three subsequent washes, cells were analyzed on an Epics Elite ESP (Beckman Coulter, Hialeah, Fla.) by observing a minimum of 20,000 events and analyzed using EXPO (version 2) for Windows.

U87MG.wtEGFR cells = experiment: binding to cell lines by FACS; set-up: species or system human
Procedure: as §1, §2, §3

U87MG.DK cells = experiment: binding to cell lines by FACS; set-up: species or system human
Procedure: Populations expressing similar levels of the various EGFR alleles (these expression levels correspond approximately to an amplification level of 25 gene copies; human glioblastomas typically have amplification levels from 10 to 50 gene copies of the truncated receptor) were selected by FACS as described previously (Nishikawa et al., 1994) and designated as U87MG.ΔEGFR, U87MG.DK, U87MG.wtEGFR, LN-Z308.ΔEGFR, LN-Z308.DK, LN-Z308.wtEGFR, A1207.ΔEGFR, A1207.DK, and A1207.wtEGFR, respectively. Each was maintained in medium containing G418 (U87MG cell lines, 400 μg/ml; LN-Z308 and A1207 cell lines, 800 μg/ml).
as §2

[1] = target: T1, sEGFR (recombinant extracellular domain of the wild-type EGFR) (Homo sapiens, UniProt P00533); experiment: ELISA on sEGFR coated plates; assay type: binding
T1 construct: sEGFR is the recombinant extracellular domain (amino acids 1-621) of the wild-type EGFR); host or cells: CHO cells
Procedure: Two types of ELISA were used to determine the specificity of the antibodies. […] Growth Factors. 18, 11-29). Antibodies were added to wells in triplicate at increasing concentration in 2% HSA in phosphate-buffered saline (PBS).

wtEGFR on A431 cells = target: T2, wtEGFR on A431 cells (Homo sapiens, UniProt P00533); experiment: Scatchard analysis on A431 cells; assay type: binding
T2 construct: endogenous in cells; host or cells: A431 human squamous carcinoma cells

U87MG xenografts = experiment: s.c. xenograft therapy study; assay type: in vivo, nude mice; conditions: 1 mg per injection
Procedure: (§4) Tumor cells (3×10^6) in […] of PBS were inoculated subcutaneously into both flanks of 4-6 week old female nude mice (Animal Research Centre, Western Australia, Australia). […] Treatment was continued for a total of 6 doses, 3 times per week for 2 weeks. In the established model, treatment was started when tumors had reached a mean volume of 65±6.42 mm^3 (U87MG.Δ2-7), 84±9.07 mm3 (U87MG), 73±7.5 mm^3 (U87MG.wtEGFR) or 201±19.09 mm^3 (A431 tumors). Tumor volume in mm^3 was determined using the formula […], where length was the longest axis and width the measurement at right angles to the length (Clark et al. (2000) Therapeutic efficacy of anti-Lewis (y) humanized 3S 193 radioimmunotherapy in a breast cancer model: enhanced activity when combined with Taxol chemotherapy. Clin. Cancer Res. 6, 3621-3628). Data was expressed as mean tumor volume±S.E. for each treatment group. Statistical analysis was performed at given time points using Student's t-test. Animals were euthanized when the xenografts reached an approximate volume of 1.5 cm^3 and the tumors excised for histological examination. This research project was approved by the Animal Ethics Committee of the Austin and Repatriation Medical Centre.

U87MG.wtEGFR xenografts = experiment: s.c. xenograft therapy study; assay type: in vivo, nude mice; conditions: established model; day control animals were sacrificed; 1 mg injections
Procedure: as §4

[2] = tested on: U87MG.wtEGFR brain xenografts; experiment: intracranial glioma xenograft treatment; assay type: in vivo, nude mice; conditions: i.p. day 0 through 14
DU145 cells = experiment: FACS analysis; assay type: binding, human
Description: Clearly, mAb806 and mAb175 can recognize only a small proportion of the EGFR on cells in the presence of an autocrine stimulation loop.

[3] = tested on: Ba/F3 cells expressing the wtEGFR; experiment: MTT proliferation assay with EGF; assay type: cell-based, murine; conditions: antibody 10 μg/ml
Procedure: Cells growing in log phase were harvested and washed twice with PBS to remove residual IL-3. […] Proliferation was determined using the MTT assay (van de Loosdrecht et al. (1994) J. Immunol. Methods. 174, 311-320).

B1: mAb806: murine IgG2b monoclonal antibody, clone 806, ATCC PTA-3858; VH SEQ ID NO:2, VL SEQ ID NO:4 (antibody, listed as Mus musculus, V domains shown)
VH: MRVLILLWLFTAFPGVLSDVQLQESGPSLVKPSQSLSLTCTVTGYSITSDFAWNWIRQFPGNKLEWMGYISYSGNTRYNPSLKSRISITRDTSKNQFFLQLNSVTIEDTATYYCVTAGRGFPYWGQGTLVTVSA
VL: MVSTAQFLAFLLLWFPGARCDILMTQSPSSMSVSLGDTVSITCHSSQDINSNIGWLQQRPGKSFKGLIYHGTNLDDEVPSRFSGSGSGADYSLTISSLESEDFADYYCVQYAQFPWTFGGGTKLEIKR
Immunohistochemical staining (xenograft A431): pos. (predominantly basal | FACS staining (U87MG cells): binding levels similar to the control antibody; also recorded: not with U87MG cells | FACS staining (U87MG.wtEGFR cells): stained; also recorded: reacted weakly | FACS staining (U87MG.DK cells): reacted intensely | inhibition of binding to immobilized sEGFR by sEGFR in solution ([1]; ELISA): unable to inhibit | binding to immobilized wild-type sEGFR ([1]; ELISA, up to 10 μg/ml): dose-dependent and saturating binding curves | inhibition of binding to immobilized sEGFR by denatured sEGFR in solution ([1]; sEGFR heated 10 min at 95° C.): able to inhibit | receptors (binding sites) per cell (wtEGFR on A431 cells; A431 cells): 2.3×10^5 | affinity for the wtEGFR on A431 cells (wtEGFR on A431 cells; Scatchard, average of three experiments): 9.5e+07 M⁻¹ | effect on xenograft growth (U87MG xenografts; established model): no effect | effect on xenograft growth (U87MG xenografts; preventative model): no effect | mean tumor volume (U87MG.wtEGFR xenografts): 468±78.38 mm^3 and 500±80 mm^3 | median survival [2]: 23 days | binding by FACS (DU145 cells): bind | effect on EGF-induced proliferation [3]: no effect
